Assay results as given in patent US20180030151A1.
Read-outs that look alike come from different tables or passages of the source.

Experiments:
[1] = target: recombinant human TFPI (tissue factor pathway inhibitor) (human) (UniProt P10646); test: cell-based or functional assay
[2] = target: recombinant human TFPI (tissue factor pathway inhibitor) (human) (UniProt P10646)
[3] = target: recombinant human TFPI (tissue factor pathway inhibitor) (human) (UniProt P10646); remark: listed apart in the source
[4] = target: recombinant human TFPI (tissue factor pathway inhibitor) (human) (UniProt P10646); remark: listed apart in the source
[5] = target: recombinant human TFPI (tissue factor pathway inhibitor) (human) (UniProt P10646); remark: listed apart in the source
[6] = target: recombinant human TFPI (tissue factor pathway inhibitor) (human) (UniProt P10646); test: cell-based or functional assay; remark: listed apart in the source
[7] = target: recombinant human TFPI (tissue factor pathway inhibitor) (human) (UniProt P10646); test: cell-based or functional assay; remark: listed apart in the source
[8] = target: recombinant human TFPI (tissue factor pathway inhibitor) (human) (UniProt P10646); remark: listed apart in the source
[9] = target: recombinant human TFPI (tissue factor pathway inhibitor) (human) (UniProt P10646); remark: listed apart in the source
[10] = target: recombinant human TFPI (tissue factor pathway inhibitor) (human) (UniProt P10646); test: cell-based or functional assay; remark: listed apart in the source

A405, TF/FVIIa/FX complex assay, Ab 1.56 nM [1]: 0.151
A405, TF/FVIIa/FX complex assay, Ab 3.13 nM [1]: 0.171
A405, TF/FVIIa/FX complex assay, Ab 6.25 nM [1]: 0.18
A405, TF/FVIIa/FX complex assay, Ab 12.5 nM [1]: 0.233
A405, TF/FVIIa/FX complex assay, Ab 25 nM [1]: 0.955
A405, TF/FVIIa/FX complex assay, Ab 50 nM [1]: 0.951
A405, TF/FVIIa/FX complex assay, Ab 100 nM [1]: 0.966
FXa assay % of FXa alone, 2.5 nM Ab, 10 nM TFPI [2]: 8.5%
FXa assay % of FXa alone, 5 nM Ab, 10 nM TFPI [2]: 66.6%
FXa assay % of FXa alone, 10 nM Ab, 10 nM TFPI [2]: 92.3%
FXa assay % of FXa alone, 20 nM Ab, 10 nM TFPI [2]: 87.6%
FXa assay OD, 2.5 nM Ab, 10 nM TFPI [2]: 0.07
FXa assay OD, 5 nM Ab, 10 nM TFPI [2]: 0.55
FXa assay OD, 10 nM Ab, 10 nM TFPI [2]: 0.763
FXa assay OD, 20 nM Ab, 10 nM TFPI [2]: 0.724
FXa assay % of FXa alone, 2.5 nM Ab, 10 nM TFPI [3]: 6.2%
FXa assay % of FXa alone, 5 nM Ab, 10 nM TFPI [3]: 16.4%
FXa assay % of FXa alone, 10 nM Ab, 10 nM TFPI [3]: 87.5%
FXa assay % of FXa alone, 20 nM Ab, 10 nM TFPI [3]: 84.6%
FXa assay OD, 2.5 nM Ab, 10 nM TFPI [3]: 0.0475
FXa assay OD, 5 nM Ab, 10 nM TFPI [3]: 0.125
FXa assay OD, 20 nM Ab, 10 nM TFPI [3]: 0.644
FXa assay % of FXa alone, 2.5 nM Ab, 10 nM TFPI [4]: 12.3%
FXa assay % of FXa alone, 5 nM Ab, 10 nM TFPI [4]: 90%
FXa assay % of FXa alone, 10 nM Ab, 10 nM TFPI [4]: 96.5%
FXa assay % of FXa alone, 20 nM Ab, 10 nM TFPI [4]: 88.8%
FXa assay OD, 2.5 nM Ab, 10 nM TFPI [4]: 0.0945
FXa assay OD, 5 nM Ab, 10 nM TFPI [4]: 0.693
FXa assay OD, 10 nM Ab, 10 nM TFPI [4]: 0.743
FXa assay OD, 20 nM Ab, 10 nM TFPI [4]: 0.683
FXa assay % of FXa alone, 2.5 nM Ab, 10 nM TFPI [5]: 8.4%
FXa assay % of FXa alone, 5 nM Ab, 10 nM TFPI [5]: 21%
FXa assay % of FXa alone, 10 nM Ab, 10 nM TFPI [5]: 90.7%
FXa assay % of FXa alone, 20 nM Ab, 10 nM TFPI [5]: 95.2%
FXa assay OD, 2.5 nM Ab, 10 nM TFPI [5]: 0.101
FXa assay OD, 5 nM Ab, 10 nM TFPI [5]: 0.249
FXa assay OD, 10 nM Ab, 10 nM TFPI [5]: 1.08
FXa assay OD, 20 nM Ab, 10 nM TFPI [5]: 1.13
% of Normalized, TF/FVIIa/FX complex assay, Ab 1.56 nM [6]: 5.2%
% of Normalized, TF/FVIIa/FX complex assay, Ab 3.13 nM [6]: 5.4%
% of Normalized, TF/FVIIa/FX complex assay, Ab 6.25 nM [6]: 7.3%
% of Normalized, TF/FVIIa/FX complex assay, Ab 12.5 nM [6]: 12.4%
% of Normalized, TF/FVIIa/FX complex assay, Ab 25 nM [6]: 54.4%
% of Normalized, TF/FVIIa/FX complex assay, Ab 50 nM [6]: 86.1%
% of Normalized, TF/FVIIa/FX complex assay, Ab 100 nM [6]: 100%
A405, TF/FVIIa/FX complex assay, Ab 1.56 nM [7]: 0.137
A405, TF/FVIIa/FX complex assay, Ab 3.13 nM [7]: 0.143
A405, TF/FVIIa/FX complex assay, Ab 6.25 nM [7]: 0.156
A405, TF/FVIIa/FX complex assay, Ab 12.5 nM [7]: 0.241
A405, TF/FVIIa/FX complex assay, Ab 25 nM [7]: 0.932
A405, TF/FVIIa/FX complex assay, Ab 50 nM [7]: 0.953
A405, TF/FVIIa/FX complex assay, Ab 100 nM [7]: 0.952
FXa assay % of FXa alone, 2.5 nM Ab, 10 nM TFPI [8]: 8.7%
FXa assay % of FXa alone, 5 nM Ab, 10 nM TFPI [8]: 33.6%
FXa assay % of FXa alone, 10 nM Ab, 10 nM TFPI [8]: 92.4%
FXa assay % of FXa alone, 20 nM Ab, 10 nM TFPI [8]: 91.4%
FXa assay OD, 2.5 nM Ab, 10 nM TFPI [8]: 0.071
FXa assay OD, 5 nM Ab, 10 nM TFPI [8]: 0.273
FXa assay OD, 10 nM Ab, 10 nM TFPI [8]: 0.75
FXa assay OD, 20 nM Ab, 10 nM TFPI [8]: 0.742
FXa assay % of FXa alone, 2.5 nM Ab, 10 nM TFPI [9]: 9.2%
FXa assay % of FXa alone, 5 nM Ab, 10 nM TFPI [9]: 87%
FXa assay % of FXa alone, 10 nM Ab, 10 nM TFPI [9]: 95.7%
FXa assay % of FXa alone, 20 nM Ab, 10 nM TFPI [9]: 98.3%
FXa assay OD, 2.5 nM Ab, 10 nM TFPI [9]: 0.0745
FXa assay OD, 5 nM Ab, 10 nM TFPI [9]: 0.702
FXa assay OD, 10 nM Ab, 10 nM TFPI [9]: 0.772
FXa assay OD, 20 nM Ab, 10 nM TFPI [9]: 0.793
% of Normalized, TF/FVIIa/FX complex assay, Ab 1.56 nM [10]: 15.8%
% of Normalized, TF/FVIIa/FX complex assay, Ab 3.13 nM [10]: 17.9%
B1: mAb2021 (anti-TFPI Ab, Novo Nordisk) (antibody, from another filing, V domains shown)
VH: EVQLVESGGGLVKPGGSLRLSCAASGFTFSNYAMSWVRQTPEKRLEWVATISRSGSYSYFPDSVQGRFTISRDNAKNSLYLQMNSLRAEDTAVYYCARLGGYDEGDAMDSWGQGTTVTVSS
VL: DIVMTQTPLSLSVTPGQPASISCKSSQSLLESDGKTYLNWYLQKPGQSPQLLIYLVSILDSGVPDRFSGSGSGTDFTLKISRVEAEDVGVYYCLQATHFPQTFGGGTKVEIKR
